Molecular target: GS-TAP-tagged Optn (human) (UniProt Q96CV9)
Test: TAP of GS-tagged Optn from HEK-293 cells, LC-MSMS

Chain of GS-TAP-tagged Optn (human) (Q96CV9 whole entry E322K): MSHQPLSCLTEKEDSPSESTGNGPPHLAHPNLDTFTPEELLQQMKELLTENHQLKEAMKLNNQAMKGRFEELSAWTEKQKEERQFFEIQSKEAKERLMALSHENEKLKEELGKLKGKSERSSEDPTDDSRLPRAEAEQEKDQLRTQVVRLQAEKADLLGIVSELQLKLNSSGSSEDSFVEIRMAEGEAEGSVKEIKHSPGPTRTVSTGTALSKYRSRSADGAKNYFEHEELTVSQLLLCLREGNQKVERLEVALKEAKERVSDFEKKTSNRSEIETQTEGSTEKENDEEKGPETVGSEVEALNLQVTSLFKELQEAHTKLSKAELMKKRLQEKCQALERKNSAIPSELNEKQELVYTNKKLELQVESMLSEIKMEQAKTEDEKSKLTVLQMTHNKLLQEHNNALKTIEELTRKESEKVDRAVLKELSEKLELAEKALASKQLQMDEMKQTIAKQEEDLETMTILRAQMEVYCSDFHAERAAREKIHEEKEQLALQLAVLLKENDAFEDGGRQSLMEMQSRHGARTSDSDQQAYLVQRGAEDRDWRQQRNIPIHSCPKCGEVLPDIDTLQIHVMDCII
Chain of MYOSIN, LIGHT CHAIN 6, ALKALI, SMOOTH MUSCLE AND NON-MUSCLE ISOFORM 1. (P60660 2-151): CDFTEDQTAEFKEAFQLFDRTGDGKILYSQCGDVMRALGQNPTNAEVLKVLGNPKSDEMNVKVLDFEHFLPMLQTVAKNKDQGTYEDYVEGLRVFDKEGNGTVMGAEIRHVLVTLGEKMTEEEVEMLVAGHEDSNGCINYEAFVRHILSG
Chain of [..] LIGHT CHAIN 2, [..]. (Q96FJ2 whole entry): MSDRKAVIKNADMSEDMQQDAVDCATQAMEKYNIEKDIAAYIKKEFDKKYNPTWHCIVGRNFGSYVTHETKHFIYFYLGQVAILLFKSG

Row | sequence coverage | unique peptide counts | Substance
1 | 0.64 | 5 | DYNEIN LIGHT CHAIN 1, CYTOPLASMIC. (from UniProt P63167 1-89)
2 | 0.11 | 2 | ISOFORM SNAP-23A OF SYNAPTOSOMAL-ASSOCIATED PROTEIN 23. (from UniProt O00161 1-211)
3 | 0.05 | 10 | FILAMIN 1. (from UniProt P21333 2-2647)
4 | 0.11 | 2 | PEROX1REDOXIN-1. (from UniProt Q06830 2-199) (enzyme)
5 | 0.16 | 3 | RAS-RELATED PROTEIN RAB-35. (from UniProt Q15286 1-201)
6 | 0.12 | 8 | HEAT SHOCK 70 KDA PROTEIN 6. (from UniProt P17066 1-643)
7 | 0.24 | 14 | ISOFORM 1 OF HEAT SHOCK COGNATE 71 KDA PROTEIN. (from UniProt P11142 2-646)
8 | 0.06 | 10 | MYOSIN-9. (from UniProt P35579 2-1960)
9 | 0.06 | 3 | ELONGATION FACTOR 1-ALPHA 2. (from UniProt Q05639 2-463)
10 | 0.12 | 7 | HEAT SHOCK 70 KDA PROTEIN 1L. (from UniProt P34931 1-641)
11 | 0.22 | 5 | COMPLEMENT COMPONENT 1 Q SUBCOMPONENT-BINDING PROTEIN, MITOCHONDRIAL PRECURSOR. (from UniProt Q07021 74-282)
12 | 0.2 | 6 | type 1 protein phosphatase catalytic subunit PP1β (from UniProt P62140 1-327) (enzyme)
13 | 0.02 | 2 | DESMOGLEIN 2 PREPROPROTEIN. (from UniProt Q14126 50-1118)
14 | 0.03 | 7 | 285 KDA PROTEIN. (from UniProt Q13813 1-2472)
15 | 0.19 | 6 | GUANINE NUCLEOTIDE-BINDING PROTEIN G. (from UniProt P08754 2-354)
16 | 0.28 | 5 | MYOSIN, LIGHT CHAIN 6, ALKALI, SMOOTH MUSCLE AND NON-MUSCLE ISOFORM 1.

Row | sequence coverage | unique peptide counts | Substance
17 | 0.12 | 11 | ISOFORM 2 OF ANKYCORBIN. (from UniProt Q9P0K7 1-983)
18 | 0.25 | 17 | HEAT SHOCK 70 KDA PROTEIN 1. (from UniProt P0DMV9 2-641)
19 | 0.15 | 5 | GALPHAI2 PROTEIN. (from UniProt P04899 2-355)
20 | 0.03 | 3 | ISOFORM 1 OF MYOSIN IB. (from UniProt O43795 1-1136)
21 | 0.01 | 2 | ISOFORM LONG OF SPECTRIN BETA CHAIN, BRAIN 1. (from UniProt Q01082 2-2364)
22 | 0.64 | 5 | [..] LIGHT CHAIN 2, [..]. (from UniProt Q96FJ2 1-89)
23 | 0.21 | 17 | ISOFORM 1 OF MYOSIN PHOSPHATASE RHO-… PROTEIN. (from UniProt Q6WCQ1 2-1025)
24 | 0.25 | 13 | CORONIN-1C. (from UniProt Q9ULV4 1-474)
25 | 0.09 | 5 | STRESS-70 PROTEIN, MITOCHONDRIAL PRECURSOR. (from UniProt P38646 47-679)
26 | 0.06 | 2 | GUANINE NUCLEOTIDE-BINDING PROTEIN G(I)/G(S)/G(T) SUBUNIT BETA 2. (from UniProt P62879 2-340)
27 | 0.18 | 6 | TROPOMYOSIN 4. (from UniProt P67936 2-248)
28 | 0.09 | 2 | PRKC APOPTOSIS WT1 REGULATOR PROTEIN. (from UniProt Q96IZ0 1-340)
29 | 0.19 | 3 | MYOSIN REGULATORY LIGHT CHAIN. (from UniProt O14950 2-172)
30 | 0.02 | 2 | ALPHA-ACTININ-4. (from UniProt O43707 1-911)
31 | 0.19 | 5 | TROPOMYOSIN 1 ALPHA CHAIN ISOFORM 7. (from UniProt P09493 1-284)
32 | 0.04 | 7 | ISOFORM 1 OF MYOSIN-10. (from UniProt P35580 1-1976)

Reference: US20140336126A1
